Experimental data as given in publication PMC6200392.
pKd: −log10 of the molar value.

Tests used:
[1] = molecular target: PRC1 N-terminus (Homo sapiens) (UniProt O43663); details: cited from earlier work
[2] = molecular target: PRC1 (unlabeled, full-length) (human) (UniProt O43663)

relative sliding of PRC1-crosslinked antiparallel microtubules, average phase-1 sliding velocity; 0.2 and 1 nM PRC1 at 6 nM Kif4A-GFP [2] | Substance | pKd [1]
– | Kif4A C-terminus (from UniProt O95239) | 6.52
4.6 ×10⁻⁶ cm/s | Kif4A-GFP (from UniProt O95239 1-1232) (natural protein) | –
